Measurements reported in patent publication US20230071371A1 (Scripps Research, published 2023).
Bridges are numbered along the chain shown (N, C = ends). Where no end group is shown, it is not given here. [ ]: non-standard residue; d: D form. NMeR = CN[C@@H](CCCNC(=N)N)C(=O)O; hArg = N=C(N)NCCCC[C@H](N)C(=O)O; β3hR = N=C(N)NCCC[C@H](N)CC(=O)O; Nle = CCCC[C@H](N)C(=O)O; L1 = not defined here; L3 = not defined here; L4 = not defined here; L5 = not defined here

B1: SEQ ID NO 94 (peptide)
peptide: SRAHQHSMETRTPDICPAWYTGCGIRPVGRF-NH2
modifications: cysteine pairing not given here
B2: Conjugate 247 (peptide)
peptide: SRAHQHSMETRTPDICPAWYTGCGIRPVGRF-NH2
modifications: linker 16-23 via L5; reading uncertain
B3: Conjugate 226 (peptide)
peptide: SRAHQCSMETRTCDINPAWYTGRGIRPVGRF-NH2
modifications: linker 6-13 via L1; reading uncertain
B4: Conjugate 242 (peptide)
peptide: SRAHQHSMETRTPDCNPAWYTCRGIRPVGRF-NH2
modifications: linker 15-22 via L3; reading uncertain
B5: Conjugate 248 (peptide)
peptide: SRAHQHSMETRTPDINPCWYTGRGCRPVGRF-NH2
modifications: linker 18-25 via L3; reading uncertain
B6: Conjugate 245 (peptide)
peptide: SRAHQHSMETRTPDICPAWYTGCGIRPVGRF-NH2
modifications: linker 16-23 via L3; reading uncertain
B7: Conjugate 244 (peptide)
peptide: SRAHQHSMETRTPDCNPAWYTCRGIRPVGRF-NH2
modifications: linker 15-22 via L5; reading uncertain
B8: SEQ ID NO 93 (peptide)
peptide: SRAHQHSMETRTPDCNPAWYTCRGIRPVGRF-NH2
modifications: cysteine pairing not given here
B9: Conjugate 229 (peptide)
peptide: SRAHQHSMETRTPDCNPAWYTCRGIRPVGRF-NH2
modifications: linker 15-22 via L1; reading uncertain
B10: Conjugate 230 (peptide)
peptide: SRAHQHSMETRTPDICPAWYTGCGIRPVGRF-NH2
modifications: linker 16-23 via L1; reading uncertain
B11: Conjugate 243 (peptide)
peptide: SRAHQHSMETRTPDCNPAWYTCRGIRPVGRF-NH2
modifications: linker 15-22 via L4; reading uncertain
B12: Conjugate 250 (peptide)
peptide: SRAHQHSMETRTPDINPCWYTGRGCRPVGRF-NH2
modifications: linker 18-25 via L5; reading uncertain
B13: SEQ ID NO 107 (peptide)
peptide: SRAHQHSMETRTPDINPAWYTGRGIRPVGRF-NH2
B14: Conjugate 249 (peptide)
peptide: SRAHQHSMETRTPDINPCWYTGRGCRPVGRF-NH2
modifications: linker 18-25 via L4; reading uncertain
B15: Conjugate 232 (peptide)
peptide: SRAHQHSMETRTPDINPAWCTGRGIRCVGRF-NH2
modifications: linker 20-27 via L1; reading uncertain
B16: SEQ ID NO 96 (peptide)
peptide: SRAHQHSMETRTPDINPAWCTGRGIRCVGRF-NH2
modifications: cysteine pairing not given here
B17: Conjugate 231 (peptide)
peptide: SRAHQHSMETRTPDINPCWYTGRGCRPVGRF-NH2
modifications: linker 18-25 via L1; reading uncertain
B18: SEQ ID NO 95 (peptide)
peptide: SRAHQHSMETRTPDINPCWYTGRGCRPVGRF-NH2
modifications: cysteine pairing not given here
B19: Conjugate 236 (peptide)
peptide: SRAHQCSMETRTCDINPAWYTGRGIRPVGRF-NH2
modifications: linker 6-13 via L3; reading uncertain
B20: Conjugate 246 (peptide)
peptide: SRAHQHSMETRTPDICPAWYTGCGIRPVGRF-NH2
modifications: linker 16-23 via L4; reading uncertain
B21: SEQ ID NO 90 (peptide)
peptide: SRAHQCSMETRTCDINPAWYTGRGIRPVGRF-NH2
modifications: cysteine pairing not given here
B22: SEQ ID NO 101 (peptide)
peptide: SRAHQCS[Nle]ETRTCDINPAWYTGRGIRPVG[β3hR]F-NH2
modifications: cysteine pairing not given here
B23: Conjugate 253 (peptide)
peptide: SRAHQCS[Nle]ETRTCDINPAWYTG[NMeR]GIRPVGRF-NH2
modifications: linker 6-13 via L1; reading uncertain
B24: Conjugate 258 (peptide)
peptide: SRAHQCS[Nle]ETRTCDINPAWYTGRGIRPVG[NMeR]F-NH2
modifications: linker 6-13 via L3; reading uncertain
B25: Conjugate 262 (peptide)
peptide: SRAHQCS[Nle]ETRTCDINPAWYTGRGIRPVG[NMeR]F-NH2
modifications: linker 6-13 via L4; reading uncertain
B26: Conjugate 264 (peptide)
peptide: SRAHQCS[Nle]ETRTCDINPAWYTG[β3hR]GIRPVGRF-NH2
modifications: linker 6-13 via L5; reading uncertain
B27: Conjugate 261 (peptide)
peptide: SRAHQCS[Nle]ETRTCDINPAWYTG[NMeR]GIRPVGRF-NH2
modifications: linker 6-13 via L4; reading uncertain
B28: SEQ ID NO 99 (peptide)
peptide: SRAHQCS[Nle]ETRTCDINPAWYTG[NMeR]GIRPVGRF-NH2
modifications: cysteine pairing not given here
B29: Conjugate 254 (peptide)
peptide: SRAHQCS[Nle]ETRTCDINPAWYTGRGIRPVG[NMeR]F-NH2
modifications: linker 6-13 via L1; reading uncertain
B30: Conjugate 256 (peptide)
peptide: SRAHQCS[Nle]ETRTCDINPAWYTG[β3hR]GIRPVGRF-NH2
modifications: linker 6-13 via L3; reading uncertain
B31: Conjugate 266 (peptide)
peptide: SRAHQCS[Nle]ETRTCDINPAWYTGRGIRPVG[NMeR]F-NH2
modifications: linker 6-13 via L5; reading uncertain
B32: Conjugate 265 (peptide)
peptide: SRAHQCS[Nle]ETRTCDINPAWYTG[NMeR]GIRPVGRF-NH2
modifications: linker 6-13 via L5; reading uncertain
B33: SEQ ID NO 98 (peptide)
peptide: SRAHQCS[Nle]ETRTCDINPAWYTG[β3hR]GIRPVGRF-NH2
modifications: cysteine pairing not given here
B34: SEQ ID NO 97 (peptide)
peptide: SRAHQCS[Nle]ETRTCDINPAWYTG[hArg]GIRPVGRF-NH2
modifications: cysteine pairing not given here
B35: Conjugate 260 (peptide)
peptide: SRAHQCS[Nle]ETRTCDINPAWYTG[β3hR]GIRPVGRF-NH2
modifications: linker 6-13 via L4; reading uncertain
B36: SEQ ID NO 100 (peptide)
peptide: SRAHQCS[Nle]ETRTCDINPAWYTGRGIRPVG[hArg]F-NH2
modifications: cysteine pairing not given here
B37: Conjugate 252 (peptide)
peptide: SRAHQCS[Nle]ETRTCDINPAWYTG[β3hR]GIRPVGRF-NH2
modifications: linker 6-13 via L1; reading uncertain
B38: Conjugate 257 (peptide)
peptide: SRAHQCS[Nle]ETRTCDINPAWYTG[NMeR]GIRPVGRF-NH2
modifications: linker 6-13 via L3; reading uncertain
B39: SEQ ID NO 102 (peptide)
peptide: SRAHQCS[Nle]ETRTCDINPAWYTGRGIRPVG[NMeR]F-NH2
modifications: cysteine pairing not given here

Molecular target: T1, GPR10 (UniProt P49683 1-370, limits assumed)
T1 sequence (looked up): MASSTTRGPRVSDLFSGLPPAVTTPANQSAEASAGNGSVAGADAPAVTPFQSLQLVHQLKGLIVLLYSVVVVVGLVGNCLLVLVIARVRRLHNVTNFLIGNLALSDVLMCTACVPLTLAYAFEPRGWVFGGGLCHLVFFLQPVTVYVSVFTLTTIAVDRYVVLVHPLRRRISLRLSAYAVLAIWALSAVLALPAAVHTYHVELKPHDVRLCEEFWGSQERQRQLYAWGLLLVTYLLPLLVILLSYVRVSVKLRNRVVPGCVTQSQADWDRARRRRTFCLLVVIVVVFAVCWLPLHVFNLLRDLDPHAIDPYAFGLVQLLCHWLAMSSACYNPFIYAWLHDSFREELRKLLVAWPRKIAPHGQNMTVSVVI
Experiment: cell-based or functional assay

Row | Binder | GPR10 EC50
1 | B1 | 70 nM
2 | B2 | 2800 nM
3 | B3 | 20 nM
4 | B4 | 6.1 nM
5 | B5 | 7.5 nM
6 | B6 | 23 nM
7 | B7 | 230 nM
8 | B8 | 17 nM
9 | B9 | 10 nM
10 | B10 | 29 nM
11 | B11 | 80 nM
12 | B12 | > 1000 nM
13 | B13 | 12 nM
14 | B14 | > 1000 nM
15 | B15 | 130 nM
16 | B16 | 920 nM
17 | B17 | 18 nM
18 | B18 | 33 nM
19 | B19 | 13 nM
20 | B20 | 360 nM
21 | B21 | 29 nM

Molecular target: T1, GPR10
Experiment: cell-based or functional assay
Remark: another data set of the same source

Row | Binder | GPR10 EC50
22 | B22 | > 200 nM
23 | B3 | 20 nM
24 | B23 | 34 nM
25 | B24 | 10 nM
26 | B25 | 280 nM
27 | B26 | 81 nM
28 | B27 | 120 nM
29 | B28 | 44 nM
30 | B29 | 100 nM
31 | B30 | 5.1 nM
32 | B13 | 12 nM
33 | B31 | 1100 nM
34 | B32 | 160 nM
35 | B33 | 13 nM
36 | B34 | 17 nM
37 | B35 | 60 nM
38 | B19 | 13 nM
39 | B36 | > 200 nM
40 | B37 | 16 nM
41 | B38 | 8.8 nM
42 | B39 | 100 nM
43 | B21 | 29 nM
